Results published in US20220033484A1 (FAPON BIOTECH, published 2022).

B1: Mutation 1-43 (antibody, V domains shown)
VH: EVQLQQSGPELVKPGASVKMSCKASGYTFTIYVLHWVKQKPGQGLEWIGYIYPYIDGTKYNEKFKGKATLTVDKSSSTAFMELSSLTSEDSAVYYCARSGYGNYGLAWLAYWGQGTLVTVSA
VL: QAVVIQESALTTSPGETVTLTCRSSTGAATTSQYANWVQEKPDHLFTGLIGGSQNRAPGVPARFSGSLIGDKAALTITGAQTEDEAIYFCALVYSNQWVFGGGTKLTVLG
notes: Built as m8
B2: Mutation 1-44 (antibody, V domains shown)
VH: EVQLQQSGPELVKPGASVKMSCKASGYTFTIYVIHWVKQKPGQGLEWIGYIQPYIDGTKYNEKFKGKATLTVDKSSSTAFMELSSLTSEDSAVYYCARSGYGGYGLAWLAYWGQGTLVTVSA
VL: QAVVIQESALTTSPGETVTLTCRSSTGAATTSNYANWVQEKPDHLFTGLIGGSNNRAPGVPARFSGSLIGDKAALTITGAQTEDEAIYFCALVYSNNWVFGGGTKLTVLG
notes: Built as m8
B3: Mutation 1-45 (antibody, V domains shown)
VH: EVQLQQSGPELVKPGASVKMSCKASGYTFTLYVVHWVKQKPGQGLEWIGYIQPYLDGTKYNEKFKGKATLTVDKSSSTAFMELSSLTSEDSAVYYCARSGYGQYGLAWLAYWGQGTLVTVSA
VL: QAVVIQESALTTSPGETVTLTCRSSTGAVTTSQYANWVQEKPDHLFTGLIGGSQNRAPGVPARFSGSLIGDKAALTITGAQTEDEAIYFCALVYSNQWVFGGGTKLTVLG
notes: Built as m8
B4: Mutation 1-46 (antibody, V domains shown)
VH: EVQLQQSGPELVKPGASVKMSCKASGYTFTIYVLHWVKQKPGQGLEWIGYINPYIDGTKYNEKFKGKATLTVDKSSSTAFMELSSLTSEDSAVYYCARSGYGNYGLAWLAYWGQGTLVTVSA
VL: QAVVIQESALTTSPGETVTLTCRSSTGAVTTSNYANWVQEKPDHLFTGLIGGSNNRAPGVPARFSGSLIGDKAALTITGAQTEDEAIYFCALVYSNNWVFGGGTKLTVLG
notes: Built as m8
B5: Mutation 1-47 (antibody, V domains shown)
VH: EVQLQQSGPELVKPGASVKMSCKASGYTFTLYVIHWVKQKPGQGLEWIGYINPYLDGTKYNEKFKGKATLTVDKSSSTAFMELSSLTSEDSAVYYCARSGYGGYGLAWLAYWGQGTLVTVSA
VL: QAVVIQESALTTSPGETVTLTCRSSTGAATTSQYANWVQEKPDHLFTGLIGGSQNRAPGVPARFSGSLIGDKAALTITGAQTEDEAIYFCALVYSNHWVFGGGTKLTVLG
notes: Built as m8
B6: Mutation 1-48 (antibody, V domains shown)
VH: EVQLQQSGPELVKPGASVKMSCKASGYTFTIYVVHWVKQKPGQGLEWIGYIYPYIDGTKYNEKFKGKATLTVDKSSSTAFMELSSLTSEDSAVYYCARSGYGQYGLAWLAYWGQGTLVTVSA
VL: QAVVIQESALTTSPGETVTLTCRSSTGAATTSNYANWVQEKPDHLFTGLIGGSNNRAPGVPARFSGSLIGDKAALTITGAQTEDEAIYFCALVYSNQWVFGGGTKLTVLG
notes: Built as m8
B7: Mutation 1-50 (antibody, V domains shown)
VH: EVQLQQSGPELVKPGASVKMSCKASGYTFTIYVIHWVKQKPGQGLEWIGYIYPYIDGTKYNEKFKGKATLTVDKSSSTAFMELSSLTSEDSAVYYCARSGYGGYGLAWLAYWGQGTLVTVSA
VL: QAVVIQESALTTSPGETVTLTCRSSTGAATTSQYANWVQEKPDHLFTGLIGGSQNRAPGVPARFSGSLIGDKAALTITGAQTEDEAIYFCALVYSNHWVFGGGTKLTVLG
B8: Mutation 1-51 (antibody, V domains shown)
VH: EVQLQQSGPELVKPGASVKMSCKASGYTFTIYVVHWVKQKPGQGLEWIGYIQPYIDGTKYNEKFKGKATLTVDKSSSTAFMELSSLTSEDSAVYYCARSGYGQYGLAWLAYWGQGTLVTVSA
VL: QAVVIQESALTTSPGETVTLTCRSSTGAATTSQYANWVQEKPDHLFTGLIGGSNNRAPGVPARFSGSLIGDKAALTITGAQTEDEAIYFCALVYSNHWVFGGGTKLTVLG
notes: Built as m8
B9: Mutation 1-52 (antibody, V domains shown)
VH: EVQLQQSGPELVKPGASVKMSCKASGYTFTIYVVHWVKQKPGQGLEWIGYINPYLDGTKYNEKFKGKATLTVDKSSSTAFMELSSLTSEDSAVYYCARSGYGNYGLAWLAYWGQGTLVTVSA
VL: QAVVIQESALTTSPGETVTLTCRSSTGAATTSQYANWVQEKPDHLFTGLIGGSNNRAPGVPARFSGSLIGDKAALTITGAQTEDEAIYFCALVYSNNWVFGGGTKLTVLG
notes: Built as m8
B10: Mutation 1-53 (antibody, V domains shown)
VH: EVQLQQSGPELVKPGASVKMSCKASGYTFTIYVVHWVKQKPGQGLEWIGYIYPYIDGTKYNEKFKGKATLTVDKSSSTAFMELSSLTSEDSAVYYCARSGYGGYGLAWLAYWGQGTLVTVSA
VL: QAVVIQESALTTSPGETVTLTCRSSTGAVTTSNYANWVQEKPDHLFTGLIGGSQNRAPGVPARFSGSLIGDKAALTITGAQTEDEAIYFCALVYSNQWVFGGGTKLTVLG
notes: Built as m8
B11: Mutation 1-54 (antibody, V domains shown)
VH: EVQLQQSGPELVKPGASVKMSCKASGYTFTIYVVHWVKQKPGQGLEWIGYINPYLDGTKYNEKFKGKATLTVDKSSSTAFMELSSLTSEDSAVYYCARSGYGQYGLAWLAYWGQGTLVTVSA
VL: QAVVIQESALTTSPGETVTLTCRSSTGAATTSNYANWVQEKPDHLFTGLIGGSNNRAPGVPARFSGSLIGDKAALTITGAQTEDEAIYFCALVYSNQWVFGGGTKLTVLG
notes: Built as m8
B12: Mutation 1-55 (antibody, V domains shown)
VH: EVQLQQSGPELVKPGASVKMSCKASGYTFTIYVVHWVKQKPGQGLEWIGYIYPYIDGTKYNEKFKGKATLTVDKSSSTAFMELSSLTSEDSAVYYCARSGYGGYGLAWLAYWGQGTLVTVSA
VL: QAVVIQESALTTSPGETVTLTCRSSTGAVTTSQYANWVQEKPDHLFTGLIGGSQNRAPGVPARFSGSLIGDKAALTITGAQTEDEAIYFCALVYSNNWVFGGGTKLTVLG
notes: Built as m8
B13: Mutation 1-41 (antibody, V domains shown)
VH: EVQLQQSGPELVKPGASVKMSCKASGYTFTLYVIHWVKQKPGQGLEWIGYINPYIDGTKYNEKFKGKATLTVDKSSSTAFMELSSLTSEDSAVYYCARSGYGNYGLAWLAYWGQGTLVTVSA
VL: QAVVIQESALTTSPGETVTLTCRSSTGAVTTSNYANWVQEKPDHLFTGLIGGSQNRAPGVPARFSGSLIGDKAALTITGAQTEDEAIYFCALVYSNQWVFGGGTKLTVLG
notes: Built as m8
B14: Mutation 1-49 (antibody, V domains shown)
VH: EVQLQQSGPELVKPGASVKMSCKASGYTFTLYVLHWVKQKPGQGLEWIGYINPYLDGTKYNEKFKGKATLTVDKSSSTAFMELSSLTSEDSAVYYCARSGYGNYGLAWLAYWGQGTLVTVSA
VL: QAVVIQESALTTSPGETVTLTCRSSTGAVTTSQYANWVQEKPDHLFTGLIGGSQNRAPGVPARFSGSLIGDKAALTITGAQTEDEAIYFCALVYSNNWVFGGGTKLTVLG
notes: Built as m8
B15: Mutation 1-11 (antibody, V domains shown)
VH: EVQLQQSGPELVKPGASVKMSCKASGYTFTLYVIHWVKQKPGQGLEWIGYINPYIDGTKYNEKFKGKATLTVDKSSSTAFMELSSLTSEDSAVYYCARSGYGGYGLAWLAYWGQGTLVTVSA
VL: QAVVIQESALTTSPGETVTLTCRSSTGAVTTSNYANWVQEKPDHLFTGLIGGSQNRAPGVPARFSGSLIGDKAALTITGAQTEDEAIYFCALVYSNNWVFGGGTKLTVLG
notes: Built as m8
B16: Mutation 1-17 (antibody, V domains shown)
VH: EVQLQQSGPELVKPGASVKMSCKASGYTFTLYVIHWVKQKPGQGLEWIGYINPYLDGTKYNEKFKGKATLTVDKSSSTAFMELSSLTSEDSAVYYCARSGYGGYGLAWLAYWGQGTLVTVSA
VL: QAVVIQESALTTSPGETVTLTCRSSTGAATTSNYANWVQEKPDHLFTGLIGGSQNRAPGVPARFSGSLIGDKAALTITGAQTEDEAIYFCALVYSNQWVFGGGTKLTVLG
notes: Built as m8
B17: Mutation 1-19 (antibody, V domains shown)
VH: EVQLQQSGPELVKPGASVKMSCKASGYTFTIYVLHWVKQKPGQGLEWIGYINPYLDGTKYNEKFKGKATLTVDKSSSTAFMELSSLTSEDSAVYYCARSGYGNYGLAWLAYWGQGTLVTVSA
VL: QAVVIQESALTTSPGETVTLTCRSSTGAVTTSNYANWVQEKPDHLFTGLIGGSQNRAPGVPARFSGSLIGDKAALTITGAQTEDEAIYFCALVYSNQWVFGGGTKLTVLG
notes: Built as m8

Each binder was assayed against T1, cTnI quality control product recombinant protein (human, UniProt P19429 2-210, limits assumed) (assay: AMC sensor, antibody immobilised, cTnI in solution).
T1 construct: treated as the same molecule; also called cTnI antigen; cardiac troponin I
T1 sequence (P19429 2-210 limits assumed): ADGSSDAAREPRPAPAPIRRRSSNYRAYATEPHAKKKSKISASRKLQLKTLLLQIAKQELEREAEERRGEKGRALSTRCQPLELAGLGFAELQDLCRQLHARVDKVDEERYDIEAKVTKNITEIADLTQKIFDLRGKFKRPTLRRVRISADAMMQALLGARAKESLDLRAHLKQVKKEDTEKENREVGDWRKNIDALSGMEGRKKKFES
Experimental: Operating process: it is equilibrated in Buffer 1 (PBST) for 60 s, the antibody is immobilized in an antibody solution for 300 s, incubated in Buffer 2 (PBST) for 180 s, bound in antigen solution for 420 s, dissociated in the Buffer 2 for 1200 s, 10 mM of GLY solution with pH 1.69 and Buffer 3 are used for sensor regeneration, and data is output. KD represents an equilibrium dissociation constant, namely the affinity; Kon represents a binding rate; and Kd is represents a dissociation rate.
Binder B1 has a Kd of 0.464 nM, a koff of 3.38e-05 s⁻¹ and a kon of 72900 M⁻¹ s⁻¹. B2 showed a Kd of 6.56 nM, a koff of 0.000205 s⁻¹ and a kon of 31300 M⁻¹ s⁻¹. B3 was tested, and the Kd was 7.41 nM, the koff was 0.000286 s⁻¹ and the kon was 38600 M⁻¹ s⁻¹. Binder B4 has a Kd of 5.41 nM, a koff of 0.000217 s⁻¹ and a kon of 40100 M⁻¹ s⁻¹. With B5 the Kd was 3.05 nM, the koff was 0.000196 s⁻¹ and the kon was 64100 M⁻¹ s⁻¹. Work on B6 yielded a Kd of 0.553 nM, a koff of 4.32e-05 s⁻¹ and a kon of 78200 M⁻¹ s⁻¹. In the case of B7, the Kd is reported as 4.61 nM, the koff is reported as 0.000233 s⁻¹ and the kon is reported as 50500 M⁻¹ s⁻¹. B8 was tested, and the Kd was 7.3 nM, the koff was 0.000223 s⁻¹ and the kon was 30500 M⁻¹ s⁻¹. B9 gave a Kd of 6.01 nM, a koff of 0.000492 s⁻¹ and a kon of 81800 M⁻¹ s⁻¹. Binder B10 has a Kd of 8.38 nM, a koff of 0.000543 s⁻¹ and a kon of 64800 M⁻¹ s⁻¹. B11 was tested, and the Kd was 7.78 nM, the koff was 0.000321 s⁻¹ and the kon was 41300 M⁻¹ s⁻¹. For B12, the Kd was 4.31 nM, the koff was 0.000239 s⁻¹ and the kon was 55400 M⁻¹ s⁻¹. Work on B13 yielded a Kd of 7.89 nM, a koff of 0.000647 s⁻¹ and a kon of 82000 M⁻¹ s⁻¹. In the case of B14, the Kd is reported as 1.51 nM, the koff is reported as 0.000134 s⁻¹ and the kon is reported as 88400 M⁻¹ s⁻¹. In the case of B15, the Kd is reported as 4.23 nM, the koff is reported as 0.000142 s⁻¹ and the kon is reported as 33500 M⁻¹ s⁻¹. With B16 the Kd was 7.37 nM, the koff was 0.000237 s⁻¹ and the kon was 32100 M⁻¹ s⁻¹. With B17 the Kd was 4.81 nM, the koff was 0.000274 s⁻¹ and the kon was 57000 M⁻¹ s⁻¹.
